We go through one substance from article PMC3220508.

The target in the experiment is HSPC038-EYFP fusion protein (human) (UniProt Q9Y5V0). Briefly: FRET or BRET. Background: In BRET a luciferase serves as donor, and the signal depends on an acceptor being close.
Sequence of UniProt Q9Y5V0 (Q9Y5V0 whole entry, the tested form may be a part): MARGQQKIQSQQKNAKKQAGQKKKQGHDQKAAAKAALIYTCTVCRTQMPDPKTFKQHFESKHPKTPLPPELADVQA

As to “ICln-ECFP fusion protein (from UniProt P54105 1-237) (natural protein)”, the normalized netFRET, 5 min hypotonic (isotonic = 1.00) turned out to be 1.31; the normalized netFRET, 15 min hypotonic (isotonic = 1.00) was found to be 1.44; the normalized netFRET, 30 min hypotonic (isotonic = 1.00) was 1.49.
